B1: native CN (protein)
chain: DAPANPCCDAATCKLTTGSQCADGLCCDQCKFMKEGTVCRRARGDDLDDYCNGISAGCPRNPFH

Columns and labels:
[1] = test system: PC-3 tumors; test: PC-3 xenograft tumor growth; format: in vivo, athymic male nude mice (Balb/c/nu/nu mice); conditions: for mean tumor volume after four weeks: docetaxel i.p. 6 then 4 mg/kg twice a week, CN 60 μg/day osmotic mini-pump, control 378±49; for suppression of growth of PC-3 tumors: four weeks treatment
Method: 100 μl of PC-3 cell suspension (1×10^6 cells) (ATCC.org, Manassas, Va.) was mixed with an equal volume, 100 μl of Matrigel basement membrane matrix (BD Biosciences, Bedford, Mass.) and injected subcutaneously into the flank region of athymic male nude mice (Balb/c/nu/nu mice) (Charles River Laboratory, Wilmington, Mass.). Four weeks after inoculation, 32 mice with PC-3 tumors were randomized into four groups with 8 mice in each group. The control group was treated with PBS and released from Alzet osmotic mini-pumps for four weeks. The second group was treated with docetaxel injections intraperitoneally at a dose of 6 mg/kg twice a week for two weeks and then switched to 4 mg/kg twice a week for two weeks. The third group was treated with contortrostatin (CN) at a dose of 60 μg/day which was continually released from subcutaneously implanted Alzet osmotic mini-pumps for four weeks. The fourth group was treated with a combination of docetaxel and CN at doses indicated in groups 2 and 3 for four weeks. Tumor volume was measured one a week and are calculated according to the formula: length×width^2×0.52.

[2] = test system: MDA-MB-435 breast carcinoma cells; test: inhibition of MDA-MB-435 cell adhesion to immobilized fibronectin (Fn); format: cell-based, human; conditions: pretreatment 30 min, 0-1000 nM; adhesion 1 hr at 25° C.; MTS
Method: (§1) Pretreated cells were allowed to adhere for 1 hr at 25° C., and after non-adherent cells were washed away, the number of adherent cells for each condition was estimated using the MTS cell viability assay. In the cell invasion assay, an invasion chamber consisting of cell culture inserts that fit into 24-well tissue culture plate has been utilized. The inserts contain an 8 μm-pore size polycarbonate membrane, over which a thin layer of ECMatrix™ was applied. The ECMatrix™ serves as an in vitro reconstituted basement membrane and is a solid gel of ECM proteins prepared from the Engelbreth Holm-Swarm (EHS) mouse tumor. The ECM layer occludes the membranes pores, blocking non-invasive cells to migrate through. The cells were incubated in the presence of various concentrations (10, 100, 1000 nM) of either native CN or Vicrostatin for 30 min at 25° C. and then allowed to migrate in the Boyden chamber for 8 hrs. At the 8 hr time point the cells that invaded through the pores into the lower chamber were measured. The numbers of invaded cells for each condition were approximated by quantitating the retrieved labeled DNA using a fluorescent plate reader. The results were calculated in % invasion, where the untreated control was considered as 100% invasion.

[3] = test system: MDA-MB-435 breast carcinoma cells; test: inhibition of MDA-MB-435 cell adhesion to immobilized vitronectin (Vn); format: cell-based, human; conditions: pretreatment 30 min, 0-1000 nM; adhesion 1 hr at 25° C.; MTS
Method: as §1

[4] = test system: MDA-MB-435 cells; test: MDA-MB-435 cell invasion through Matrigel/ECMatrix in modified Boyden chamber; format: cell-based, human; conditions: 10, 100, 1000 nM; 8 hrs in Boyden chamber
Method: as §1

[5] = target: T1, GPIIb/IIIa (integrin αIIbβ3) (Homo sapiens, UniProt P05106+P08514); test: platelet aggregation inhibition assay (ADP induced, platelet-rich plasma); format: cell-based
T1 construct: endogenous in cells
Method: The recombinant CN products were evaluated for biological activity by a platelet aggregation inhibition assay. According to this assay, CN binding to GPIIb/IIIa (integrin αIIbβ3) in an RGD dependent manner inhibits ADP induced platelet aggregation (Trikha, Rote, et al. 1994). In this assay, potential inhibitors are added to fresh platelet-rich plasma, and after minute, ADP is added to a final concentration of 1 μM to induce aggregation. If inhibitor is present, functional aggregation will not occur. The IC50 is defined as the concentration at which 50% of the activity is inhibited, and is used as a measure of the potency of an inhibitor.

[6] = liposome encapsulation efficiency (BCA protein assay); format: physicochemical
Method: Endotoxin-free VN containing liposomes (referred to as LVN) and endotoxin-free native CN containing liposomes (referred to as LCN) were prepared utilizing a probe sonication previously described (Fujii, Chang et al. 1997). Briefly, the lipids (disteroylphosphatidylcholine, cholesterol and polyethylene glycol derivatized lipid) were dissolved in a chloroform/methanol solution. Thin lipid films were created by pipetting aliquots of the lipid solution into round bottom glass tubes followed by solvent evaporation at 65° C. under a stream of nitrogen gas. The films were placed under vacuum for at least 24 hours to remove residual organic solvent. Liposomes formed following hydration of the lipid films with native CN or VN dissolved in 10 mM sodium phosphate, 9% sucrose, pH 7.2. The mixture was incubated at 65° C. for 5-10 minutes. Hydration was followed by probe sonication until the suspension was translucent. […]
The concentration of liposome entrapped CN/VN was determined by disruption of the liposomes with chloroform/methanol/water (10:40:50) followed by centrifugation at 14,000×g. The supernatant was analyzed for CN/VN concentration using BCA protein assay (Smith et al., Anal. Biochem. 150(1): 76-85 (1985)). The encapsulation efficiency was assessed by BCA protein determination following disruption of the LrCN with a solution of H2O methanol: chloroform.

| Molecule | mean tumor volume after four weeks [1] [mm^3] | suppression of growth of PC-3 tumors [1] | inhibition of adhesion of MDA-MB-435 cells to immobilized fibronectin (Fn) [2] | inhibition of adhesion of MDA-MB-435 cells to immobilized vitronectin (Vn) [3] | inhibition of MDA-MB-435 cell invasion [4] | inhibition of platelet aggregation ([5]; even at low μM concentrations) | protein in the encapsulation solution entrapped within the liposomes [6] [%] | IC50 in the platelet inhibition assay ([5]; ADP 1 μM induced aggregation) |
| --- | --- | --- | --- | --- | --- | --- | --- | --- |
| CC(=O)O[C@@]12CO[C@@H]1C[C@H](O)[C@@]1(C)C(=O)[C@H](O)C3=C(C)[C@@H](OC(=O)[C@H](O)[C@@H](NC(=O)OC(C)(C)C)c4ccccc4)C[C@@](O)([C@@H](OC(=O)c4ccccc4)[C@H]21)C3(C)C [docetaxel, reference compound] | 259±38 | significantly suppressed |  |  |  |  |  |  |
| rCN: recombinant CN disintegrin domain without the HKGPAT sequence |  |  | inactive in the nanomolar range | inactive in the nanomolar range | inactive in the nanomolar range | did not inhibit platelet aggregation |  |  |
| B1 | 195±40 | significantly suppressed | inhibited adhesion | inhibited adhesion |  |  | 80 | almost identical |

— patent publication US8008256B2, “Combination therapy for treatment of cancer” (priority 2006, dated 2011)
